Results from publication PMC11633381, “Acarbose impairs gut Bacteroides growth by targeting intracellular glucosidases” (mBio, 2024).

Target: BoGH13BSus (BoSusA), periplasmic GH13 neopullulanase of the Bacteroides ovatus Sus (Bacteroides ovatus)
Assay: SEC; 0.5 mL of 10.6 mg/mL BoSusA or 8.2 mg/mL SusA on HiPrep 16/60 Sephacryl S-200 HR, 20 mM HEPES, 100 mM NaCl, pH 7.0, 0.5 mL/min; compared with BioRad gel filtration standards

- stoichiometry N: 2
Substance: BoGH13BSus (BoSusA), periplasmic GH13 neopullulanase of the Bacteroides ovatus Sus (enzyme)
